The results in this text go back to publication PMC8304084, “A Concerted Action of UBA5 C-Terminal Unstructured Regions Is Important for Transfer of Activated UFM1 to UFC1” (International Journal of Molecular Sciences, 2021).

Common to all, as to assay type: binding
One assay addresses T1, LC3B (Homo sapiens, UniProt Q9GZQ8).
T1 construct: LC3B, residues 5–120; ubiquitin tag Ub3 (vector pETm60_Ub3) (cleaved yes); made in house; host or cells: E. coli T7 Express
Briefly: ITC, UBA5 peptides vs LC3B. To be noted: 25 °C, vs LC3B. The text has this:
(§1) To understand how the UBA5 C-terminus participates in the ufmylation cascade, we performed isothermal titration calorimetry (ITC) experiments, in which we titrated UBA5 C-terminal peptides (see Table 1) to the UBA5 AD, UFC1, UFM1 and representative LC3/GABARAP proteins (Figure 2A, Supplementary Figure S2A–D and Table 2).
(§2) All proteins and peptides were expressed in E.Coli T7 Express (New England Biolabs GmbH, Frankfurt, Germany) cells in LB or M9 (to obtain ^15N- and ^13C,^15N-labeled polypeptides) media according to the protocol described in [33, 36]. For protein purification, bacterial cell pellets were resuspended in lysis buffer (50 mM Tris-HCl pH = 7.5, 100 mM NaCl, 5% glycerol, 5 mM PIC (protease inhibitor cocktail)) and lysed via sonication (TT13 Sonotrode, 40% amplitude, for 6 × 1 min with a 0.5/0.5-s pulse). Lysates were centrifuged for 45 min at 17,000× g at 4 °C. Supernatants were loaded onto a His Trap Fast Flow 5 mL column (GE Healthcare, München, Germany) equilibrated in loading buffer (50 mM Tris-HCl pH = 8.0, 250 mM NaCl, 1% glycerol, 20 mM imidazole). The column was washed with loading buffer for 5–10 CV and protein was eluted with elution buffer (50 mM Tris-HCl pH = 8, 250 mM NaCl, 1% glycerol, 400 mM imidazole). Simultaneous TEV cleavage (1 mg TEV protease was added to 100 mg peptides/proteins) and buffer exchange to loading buffer via dialysis was performed over night at 4 °C. After reverse IMAC, proteins were concentrated with conical concentrators (Millipore Merck, Darmstadt, Germany) and loaded on a Superdex 10/60 75 or 200 column (GE Healthcare, München, Germany) for further purification and equilibration with ITC/NMR buffer (25 mM HEPES pH = 7.5, 100 mM NaCl). For structural NMR spectroscopy, buffer containing 50 mM Tris-HCl pH = 7.5, 100 mM NaCl was used. Prior to NMR experiments, TCEP and protease inhibitors cocktail were added to the samples to final concentrations 1 and 5 mM, respectively. Purified peptides and protein were concentrated and stored at −80 °C. The protein and peptide concentrations were calculated from the UV absorption at 280 nm by Nanodrop spectrophotometer (Thermo Scientific, Langenselbold, Germany).
(§3) All ITC experiments were performed at 25 °C using a VP-ITC microcalorimeter (Malvern Panalytical Ltd., Malvern, UK). Peptides in concentration of ~400 µM were titrated into 20–25 µM solutions of corresponding binding partner at a stirring speed of 307 rpm. The raw data were corrected on the dilution heat of peptides obtained in independent experiment (titration of the peptide in syringe into the ITC/NMR buffer in the measuring cell). Pre-titration delay was set to 180 s, interval between titration steps was experimentally adjusted to avoid kinetic contribution to the observed heat effects and set to 200 s. A single ITC profile was collected for each type of interaction. The ITC data were analyzed based on a “one-site” binding model with MicroCal ITC software implemented in Origin 7.0.
In general terms: In ITC the heat of successive injections is recorded.

Assay [1] concerns the target T2, GABARAPL2 (Homo sapiens, UniProt P60520).
T2 construct: modified ubiquitin tag (Ub19) with TEV site (N, cleaved yes); made in house; host or cells: E. coli T7 Express
Briefly: NMR titration with GABARAPL2. To be noted: NMR titration of 15N-labeled R1-R2-R3^325–404 with GABARAPL2, 25 °C.

Another assay concerns AD^1–330. The experiment in a line: NMR titration of R1-R2-R3^325–404 with UBA5 AD^1–330. To be noted: 2-fold molar excess of AD^1–330, 900 MHz. How it is done: All NMR experiments were performed at a sample temperature of 25 °C on Bruker 600, 700, 800, 900, and 950 MHz spectrometers equipped with cryogenic probes, and a 500 MHz spectrometer equipped with a room-temperature triple-resonance probe. All NMR spectra were analyzed with the Sparky 3.114 software (University of California, San Francisco, USA). For NMR titration experiments, the non-labeled UBA5 peptides were titrated to 100 µM ^13C,^15N-labeled UFC1 to a final molar ratio of 1:8 (UFC1:UBA5 peptide). Conversely, 100 µM ^13C,^15N-labeled UBA5 peptides were titrated with non-labeled UFC1 to a final molar ratio 1:4 (UBA5 peptide:UFC1). 2D ^1H-^15N correlation spectra ([^15N,^1H] TROSY-HSQC) were recorded at each titration point. The same types of spectra were recorded to estimate binding of ^13C,^15N-labeled UFC1 (75 µM) to non-labeled UBA5, UBA5~UFM1 and UFM1 at 1:2 molar ratios. CSP values, Δδ, were calculated for each individual amide group using the formula Δδ = [(ΔδN/5)^2 + Δδ^2HN)]^1/2. […]
experiment, non‐labelled AD1–330 construct was added to the 15N‐labelled R1‐R2‐R3325–404 peptide to a 2‐fold molar excess.
Representative area of [15N,1H] TROSY‐HSQC spectra recorded at 900 MHz for R1‐R2‐R3325–404 in free form (red contours) and in presence of AD1–330 (blue contours) are overlaid. […]

The target in assay [2] is T2, GABARAPL2. Briefly: ITC, UBA5 peptides vs GABARAPL2. To be noted: 25 °C.
Excerpt: as §1, §2, §3

For a further assay, the target named is T3, LC3A (Homo sapiens, UniProt Q9H492).
T3 construct: LC3A, residues 4–120; ubiquitin tag Ub3 (vector pETm60_Ub3) (cleaved yes); made in house; host or cells: E. coli T7 Express
T3 sequence (Q9H492 4-120): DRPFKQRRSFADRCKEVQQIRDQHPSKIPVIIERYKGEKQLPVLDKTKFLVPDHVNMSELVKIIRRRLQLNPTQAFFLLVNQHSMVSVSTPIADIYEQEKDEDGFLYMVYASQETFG
The experiment in a line: ITC, UBA5 peptides vs LC3A. To be noted: 25 °C.
Excerpt: as §1
as §2, with “For structural NMR spectroscopy, buffer containing 50 mM Tris-HCl pH = 7.5, 100 mM NaCl was used. Prior to NMR experiments, TCEP and protease inhibitors cocktail were added to the samples to final concentrations 1 and 5 mM, respectively. Purified peptides and protein were concentrated and stored at −80 °C.” left out
All ITC experiments were performed at 25 °C using a VP-ITC microcalorimeter (Malvern Panalytical Ltd., Malvern, UK). […] The ITC data were analyzed based on a “one-site” binding model with MicroCal ITC software implemented in Origin 7.0.

The mark [3] stands for this setting: value is KA × 10^−6, ± = fitting error.

T2 sequence (P60520 3-116): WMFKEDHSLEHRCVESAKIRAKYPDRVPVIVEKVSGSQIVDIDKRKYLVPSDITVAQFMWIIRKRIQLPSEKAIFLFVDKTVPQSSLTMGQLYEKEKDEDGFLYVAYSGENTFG

With “R1-R2-R3^325–404: UBA5 C-terminal part, residues 325–404 (recombinant, E. coli)”, the ΔG in the assay with LC3B was -7.33 kcal/mol; with GABARAPL2 [2] (vs GABARAPL2) it was -9.25 kcal/mol; in the assay with LC3A it was -7.38 kcal/mol. The ΔS is recorded as 8.86 cal mol^−1 K^−1 in the assay with LC3B and 2.04 cal mol^−1 K^−1 in the assay with GABARAPL2 [2] (vs GABARAPL2). Moreover, the “−T*ΔS” value is -2.64 kcal/mol with LC3B, -0.61 kcal/mol with GABARAPL2 [2] (vs GABARAPL2) and -3.13 kcal/mol with LC3A. Also, the “KA*10^−6” value stood at 0.24 ± 0.09 M^−1 with LC3B (setting [3]); 5.99 ± 0.49 M^−1 with GABARAPL2 [2] (vs GABARAPL2, value is KA × 10^−6, ± = fitting error); 0.26 ± 0.03 M^−1 in the assay with LC3A (setting [3]). Further, the “interaction with GABARAPL2 (in words)” value with GABARAPL2 [1] is “GABARAPL2 binds first to the LIR/UFIM region, and after saturation of this binding site, GABARAPL2 interacts with additional sites within the UBA5 C-terminus”. For the same substance, in the assay on AD^1–330, the “interaction with UBA5 AD” value is on record as “No interactions”.
